Assay results: IntAct's records for PubMed 11579209

B1: Tyrosine-protein phosphatase non-receptor type 1 (Homo sapiens), P18031 (parent)
chain: MEMEKEFEQIDKSGSWAAIYQDIRHEASDFPCRVAKLPKNKNRNRYRDVSPFDHSRIKLHQEDNDYINASLIKMEEAQRSYILTQGPLPNTCGHFWEMVWEQKSRGVVMLNRVMEKGSLKCAQYWPQKEEKEMIFEDTNLKLTLISEDIKSYYTVRQLELENLTTQETREILHFHYTTWPDFGVPESPASFLNFLFKVRESGSLSPEHGPVVVHCSAGIGRSGTFCLADTCLLLMDKRKDPSSVDIKKVLLEMRKFRMGLIQTADQLRFSYLAVIEGAKFIMGDSSVQDQWKELSHEDLEPPPEHIPPPPRPPKRILEPHNGKCREFFPNHQWVKEETQEDKDCPIKEEKGSPLNAAPYGIESMSQDTEVRSRVVGGSLRGAQAASPAKGEPSLPEKDEDHALSYWKPFLVNMCVATVLTAGAYLCYRFLFNSNT

Variants of: B1
Conditions: with insr_human INSR

Row | Variant | effect of a mutation on the interaction
1 | MEMEKEFEQIDKSGSWAAIYQDIRHEASDFPCRVAKLPKNKNRNRYRDVAPFDHSRIKLHQEDNDYINASLIKMEEAQRSYILTQGPLPNTCGHFWEMVWEQKSRGVVMLNRVMEKGSLKCAQYWPQKEEKEMIFEDTNLKLTLISEDIKSYYTVRQLELENLTTQETREILHFHYTTWPDFGVPESPASFLNFLFKVRESGSLSPEHGPVVVHCSAGIGRSGTFCLADTCLLLMDKRKDPSSVDIKKVLLEMRKFRMGLIQTADQLRFSYLAVIEGAKFIMGDSSVQDQWKELSHEDLEPPPEHIPPPPRPPKRILEPHNGKCREFFPNHQWVKEETQEDKDCPIKEEKGSPLNAAPYGIESMSQDTEVRSRVVGGSLRGAQAASPAKGEPSLPEKDEDHALSYWKPFLVNMCVATVLTAGAYLCYRFLFNSNT [S50A] | decreasing interaction

Variants of: B1
Conditions: with insr_human INSR
Remark: another data set of the same source

Row | Variant | effect of a mutation on the interaction
2 | MEMEKEFEQIDKSGSWAAIYQDIRHEASDFPCRVAKLPKNKNRNRYRDVDPFDHSRIKLHQEDNDYINASLIKMEEAQRSYILTQGPLPNTCGHFWEMVWEQKSRGVVMLNRVMEKGSLKCAQYWPQKEEKEMIFEDTNLKLTLISEDIKSYYTVRQLELENLTTQETREILHFHYTTWPDFGVPESPASFLNFLFKVRESGSLSPEHGPVVVHCSAGIGRSGTFCLADTCLLLMDKRKDPSSVDIKKVLLEMRKFRMGLIQTADQLRFSYLAVIEGAKFIMGDSSVQDQWKELSHEDLEPPPEHIPPPPRPPKRILEPHNGKCREFFPNHQWVKEETQEDKDCPIKEEKGSPLNAAPYGIESMSQDTEVRSRVVGGSLRGAQAASPAKGEPSLPEKDEDHALSYWKPFLVNMCVATVLTAGAYLCYRFLFNSNT [S50D] | disrupting interaction
